For this series, the system named is YBX1 cold shock domain (MST). As to the kind of experiment: MST. The following applies: not given in the material (MST and pull-down methods text missing).

In general, Kd refers to a measure of binding affinity in units of concentration. A low value points to a tighter complex.

As to unmethylated ENO1 RNA oligo (MST), the Kd stood at 10.1 µM.

The values are drawn from PMC11267267, “Metabolic Recoding of NSUN2‐Mediated m^5C Modification Promotes the Progression of Colorectal Cancer via the NSUN2/YBX1/m^5C‐ENO1 Positive Feedback Loop” (Advanced Science, 2024).
